Patent CN114456266A (dated 2022)
Ends that are not written are not given here.

T1: RAD21*M (predicted separase cleavage fragment of RAD21, recombinant, expressed in HEK-293 cells) (UniProt O60216 173-450)
T1 construct: domain: RAD21*M; Transiently expressed from a plasmid in HEK-293
T1 sequence (looked up): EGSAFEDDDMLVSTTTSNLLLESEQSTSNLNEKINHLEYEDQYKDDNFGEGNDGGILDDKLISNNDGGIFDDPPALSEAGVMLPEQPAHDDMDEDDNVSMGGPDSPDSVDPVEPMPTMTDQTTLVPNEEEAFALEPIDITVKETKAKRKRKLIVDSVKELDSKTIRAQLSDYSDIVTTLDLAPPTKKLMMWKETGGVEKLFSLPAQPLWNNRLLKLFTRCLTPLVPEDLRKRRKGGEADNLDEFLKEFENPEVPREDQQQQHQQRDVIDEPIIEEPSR

T2: GST fusion with RAD21 cleavage site 2 peptide IEEPSR at the COOH terminus (also: fused to GST at N-terminal side)
T2 construct: E. coli extract of GST fused to the peptide near the RAD21 cleavage site; also called 肽段IEEPSR(切割位点2); not shown: GST (glutathione S-transferase) fusion partner, expressed in E. coli
T2 chain: {GST}-IEEPSR

T3: GST fusion with REC8 cleavage site 2 peptide PSEIEVPR at the COOH terminus (also: fused to GST at N-terminal side)
T3 construct: not shown: GST (glutathione S-transferase) fusion partner, expressed in E. coli
T3 chain: {GST}-PSEIEVPR

B1: 抗RAD21新表位单克隆抗体IB22-S (antibody, mouse IgG2a, kappa, V domains shown)
VH: EVQLVESGGGLVQPRGSLKLSCAASGFTFNNYAMNWVRQAPGKGLEWVARIRSKSKNYAIYYADSVKDRFTISRDDSQTMLYLQMNNLKTEDTGMYYCVAPSYSGSSPFAYWGQGTLVTVSA
VL: DVLMTQTPLSLPVSLGDQASISCRSSQSFVHSNGNTYLEWYLQKPGQSPKLLIYKVSNRFSGVPDRFSGSGSGTDFTLKISRVEAEDLGVYYCFQGSHVPFTFGSGTKLEIKR
notes: Mouse hybridoma antibody (ascites used in blots); also called 1B22s
B2: 抗REC8新表位单克隆抗体IE22-D (antibody, V domains shown)
VH: EVQLQQSGAEVVKPGASVKLSCTASGFNIKDTYMHWVNQRPEQGLEWIGRNDPANGNSKYDPKFQGKATITADTSSNTAYLQLSSLTSEDTAVYYCARGVRQGAWFAYWGQGTLVTVSA
VL: DVLMTQTPLSLPVSLGDQASISCRSSQSIVHSNGNTYLEWYLQKPGQSPKLLIYKVSNRFSGVPDRFSGSGSGTDFTLKISRVEAEDLGVYYCFQGSHVFTFGAGTKLELKR
notes: Mouse hybridoma antibody (ascites used in blots); also called 1E22d

Columns and labels:
[1] = target: T1, RAD21*M (predicted separase cleavage …); experiment: immunoprecipitation by the standard ChIP procedure of recombinant protein from HEK-293 extracts
[2] = target: T2, GST fusion with RAD21 cleavage site 2 …; experiment: immunoblot, hybridoma ascites on E. coli extracts of GST-peptide fusions
[3] = target: T3, GST fusion with REC8 cleavage site 2 …; experiment: as above

| Binder | binding result [1] | binding result [2] | binding result [3] |
| --- | --- | --- | --- |
| B1 | binds | binds |  |
| B2 |  |  | binds |
